Values belong to the binder of their own block, whether it stands above or below them.
Target: acetylcholine receptor
Assay: SPR, AchR immobilised on CM5 chip, peptide 10 uM

Binding affinity (RU): 17 RU
B1: 6mer-2-745 (peptide)
peptide: KNTERR

Binding affinity (RU): 27 RU
B2: 6mer-2-698 (peptide)
peptide: KCEDKK

Binding affinity (RU): 19 RU
B3: 6mer-2-744 (peptide)
peptide: KDHPRK

Binding affinity (RU): 17 RU
B4: 6mer-2-734 (peptide)
peptide: KHCHRR

Binding affinity (RU): 29 RU
B5: 6mer-2-752 (peptide)
peptide: KINWRR

Binding affinity (RU): 28 RU
B6: 6mer-2-677 (peptide)
peptide: RENWKK

Binding affinity (RU): 20 RU
B7: 6mer-2-704 (peptide)
peptide: KDWHRK

Binding affinity (RU): 32 RU
B8: 6mer-2-678 (peptide)
peptide: KEWWRR

Binding affinity (RU): 21 RU
B9: 6mer-2-722 (peptide)
peptide: RNEHRR

Binding affinity (RU): 28 RU
B10: 6mer-2-748 (peptide)
peptide: RFDKKR

Binding affinity (RU): 24 RU
B11: 6mer-2-689 (peptide)
peptide: RDKERR

Binding affinity (RU): 14 RU
B12: 6mer-2-703 (peptide)
peptide: RTMHKR

Binding affinity (RU): 25 RU
B13: 6mer-2-726 (peptide)
peptide: KHHKKK

Binding affinity (RU): 33 RU
B14: 6mer-2-682 (peptide)
peptide: RNMERR

Binding affinity (RU): 19 RU
B15: 6mer-2-737 (peptide)
peptide: KDSVRR

Binding affinity (RU): 24 RU
B16: 6mer-2-713 (peptide)
peptide: RASWRR

Binding affinity (RU): 20 RU
B17: 6mer-2-679 (peptide)
peptide: RYSAKK

Binding affinity (RU): 22 RU
B18: 6mer-2-694 (peptide)
peptide: KDSIRK

Binding affinity (RU): 15 RU
B19: 6mer-2-691 (peptide)
peptide: RHKMRK

Binding affinity (RU): 15 RU
B20: 6mer-2-680 (peptide)
peptide: KNHGKR

Binding affinity (RU): 26 RU
B21: 6mer-2-746 (peptide)
peptide: RIKVRK

Binding affinity (RU): 33 RU
B22: 6mer-2-681 (peptide)
peptide: RDTWRR

Binding affinity (RU): 29 RU
B23: 6mer-2-733 (peptide)
peptide: RTPARK

Binding affinity (RU): 16 RU
B24: 6mer-2-687 (peptide)
peptide: KADGRK

Binding affinity (RU): 29 RU
B25: 6mer-2-708 (peptide)
peptide: RAWVKK

Binding affinity (RU): 26 RU
B26: 6mer-2-721 (peptide)
peptide: RHSKKK

Binding affinity (RU): 19 RU
B27: 6mer-2-697 (peptide)
peptide: KCAVKK

Binding affinity (RU): 29 RU
B28: 6mer-2-738 (peptide)
peptide: KPWFKK

Binding affinity (RU): 26 RU
B29: 6mer-2-730 (peptide)
peptide: RNTHKR

Binding affinity (RU): 23 RU
B30: 6mer-2-706 (peptide)
peptide: KFTDRK

Binding affinity (RU): 14 RU
B31: 6mer-2-676 (peptide)
peptide: KCTAKK

Binding affinity (RU): 24 RU
B32: 6mer-2-732 (peptide)
peptide: KPTWRK

Binding affinity (RU): 18 RU
B33: 6mer-2-743 (peptide)
peptide: KHTMKR

Binding affinity (RU): 18 RU
B34: 6mer-2-716 (peptide)
peptide: RTWKKR

Binding affinity (RU): 30 RU
B35: 6mer-2-741 (peptide)
peptide: KNEKKR

Binding affinity (RU): 20 RU
B36: 6mer-2-749 (peptide)
peptide: KMWKRK

Binding affinity (RU): 29 RU
B37: 6mer-2-750 (peptide)
peptide: RKCVKR

Binding affinity (RU): 23 RU
B38: 6mer-2-701 (peptide)
peptide: KTWAKR

Binding affinity (RU): 29 RU
B39: 6mer-2-736 (peptide)
peptide: KNNHKK

Binding affinity (RU): 23 RU
B40: 6mer-2-728 (peptide)
peptide: RMTMKK

Binding affinity (RU): 13 RU
B41: 6mer-2-688 (peptide)
peptide: RPMFRK

Binding affinity (RU): 33 RU
B42: 6mer-2-683 (peptide)
peptide: KTEIRK

Binding affinity (RU): 23 RU
B43: 6mer-2-699 (peptide)
peptide: KNAGKR

Binding affinity (RU): 20 RU
B44: 6mer-2-696 (peptide)
peptide: KFTKKK

Binding affinity (RU): 24 RU
B45: 6mer-2-724 (peptide)
peptide: KYTMKK

Binding affinity (RU): 15 RU
B46: 6mer-2-685 (peptide)
peptide: KFHNRK

Binding affinity (RU): 12 RU
B47: 6mer-2-751 (peptide)
peptide: RPHWKR

Binding affinity (RU): 11 RU
B48: 6mer-2-727 (peptide)
peptide: RDMIKR

Binding affinity (RU): 21 RU
B49: 6mer-2-707 (peptide)
peptide: RTWKRK

Binding affinity (RU): 18 RU
B50: 6mer-2-753 (peptide)
peptide: RYEHRR

Binding affinity (RU): 29 RU
B51: 6mer-2-720 (peptide)
peptide: RATNRK

Binding affinity (RU): 30 RU
B52: 6mer-2-714 (peptide)
peptide: KIDVRK

Binding affinity (RU): 15 RU
B53: 6mer-2-700 (peptide)
peptide: RPWHKK

Binding affinity (RU): 17 RU
B54: 6mer-2-739 (peptide)
peptide: RIHAKK

Binding affinity (RU): 11 RU
B55: 6mer-2-705 (peptide)
peptide: RENFKK

Binding affinity (RU): 12 RU
B56: 6mer-2-740 (peptide)
peptide: KIDIRR

Binding affinity (RU): 25 RU
B57: 6mer-2-725 (peptide)
peptide: KAHMKK

Binding affinity (RU): 13 RU
B58: 6mer-2-690 (peptide)
peptide: KFTMRK

Binding affinity (RU): 31 RU
B59: 6mer-2-709 (peptide)
peptide: RIWPKR

Binding affinity (RU): 29 RU
B60: 6mer-2-692 (peptide)
peptide: KYTNRR

Binding affinity (RU): 19 RU
B61: 6mer-2-731 (peptide)
peptide: KASWKK

Binding affinity (RU): 18 RU
B62: 6mer-2-702 (peptide)
peptide: KEMIKR

Binding affinity (RU): 21 RU
B63: 6mer-2-686 (peptide)
peptide: KTWEKK

Binding affinity (RU): 16 RU
B64: 6mer-2-693 (peptide)
peptide: KNTIRR

Binding affinity (RU): 14 RU
B65: 6mer-2-684 (peptide)
peptide: RYTMKK

Binding affinity (RU): 29 RU
B66: 6mer-2-747 (peptide)
peptide: RANFRR

Binding affinity (RU): 14 RU
B67: 6mer-2-710 (peptide)
peptide: RNKKKK

Binding affinity (RU): 29 RU
B68: 6mer-2-712 (peptide)
peptide: KIPHRR

Binding affinity (RU): 32 RU
B69: 6mer-2-715 (peptide)
peptide: RATHRK

Binding affinity (RU): 32 RU
B70: 6mer-2-742 (peptide)
peptide: KNNWRR

Binding affinity (RU): 23 RU
B71: 6mer-2-723 (peptide)
peptide: KEDMKR

Binding affinity (RU): 28 RU
B72: 6mer-2-695 (peptide)
peptide: KCWWRR

Binding affinity (RU): 21 RU
B73: 6mer-2-735 (peptide)
peptide: KMNAKK

Binding affinity (RU): 12 RU
B74: 6mer-2-718 (peptide)
peptide: KYTFKR

Binding affinity (RU): 15 RU
B75: 6mer-2-717 (peptide)
peptide: KCPGKR

Binding affinity (RU): 30 RU
B76: 6mer-2-729 (peptide)
peptide: RCPDKR

Binding affinity (RU): 29 RU
B77: 6mer-2-711 (peptide)
peptide: KECGRR

Binding affinity (RU): 29 RU
B78: 6mer-2-719 (peptide)
peptide: KIKPRR

From patent US20250011363A1, “OPTIMIZED SHORTENED PEPTIDE THAT BINDS TO ACETYLCHOLINE RECEPTOR, AND USE THEREOF” (SKINMED CO., LTD., priority 2021, published 2025)
